Assay [1] relates to cerebellar granule neurons (CGNs). The assay can be described thus: FM4-64 SV turnover in transfected cerebellar granule neurons (Example 1). The format is cell-based, rat. The following applies: two sequential KCl stimuli. Here is the method: Primary cerebellar granule neuron (CGN) cultures were prepared from 7-day old Sprague-Dawley rat pups as previously described (Tan et al. 2003). In brief, neurons were plated on poly-D-lysine coated glass coverslips at a density of 1.5×10^5 cells/coverslip. Neurons were cultured in MEM containing Earle's salts plus 10% (v/v) foetal calf serum, 25 mM KCl, 30 mM glucose, 2 mM glutamine, 100 U/ml penicillin and 100 μg/ml streptomycin at 37° C., in a humidified atmosphere of 5% CO2. The culture medium was supplemented with 10 μM cytosine arabinoside after 24 hours. Transfections were carried out using an established calcium phosphate precipitation protocol. CGNs were transiently transfected with 1.5 μg of DNA between 7-10 days in vitro and were used 48 h later.
The effect of overexpression of dynamin I-GFP constructs on SV recycling in CGNs was monitored using the styryl dye FM4-64 (Molecular Probes). The extent of FM4-64 loading was quantified by normalising the fluorescence value at the start of stimulation to an arbitrary value and monitoring the total decrease on unloading with a dual KCl stimulus. The rate of FM4-64 unloading (as a measure of SV exocytosis) was estimated by determining the time taken for individual nerve terminals to lose 50% of their dye content on stimulation of unloading. These values were normalised to untransfected nerve terminals within the same field of view. SV exocytosis and recycling was also monitored using the pH-sensitive VAMP-GFP (synaptopHluorin). Dynamin constructs linked to mCerulean rather than to GFP were used in this part of the study. CGNs were co-transfected with synaptopHluorin and either DynI^WT-mCerulean, DynI^dmA-mCerulean or Dyn^dmE-mCerulean and stimulated with 50 mM KCl for 20 sec. The evoked synaptopHluorin response was recorded at 500 nm excitation and 510-550 nm emission (mCerulean fluorescence was not detectable at this wavelength). Co-expression of dynamin I was confirmed by recording at 430 nm excitation. Responses were analysed by calculating the increased fluorescence of synaptopHluorin over baseline for individual nerve terminals and then normalising the maxima and minima to 1 and 0.
To show the key role of the phosphorylation sites by independent methods in cultured neurons their role in SV turnover in nerve terminals of CGNs transfected with dynamin I-GFP was examined. SV turnover in neurons transfected with DynI^WT-GFP was indistinguishable from that in untransfected neurons (FIG. 6a-c). […] The extent of HM4-64 accumulation and thus SV turnover, was quantified from the change in fluorescence (AF) by unloading the CGN terminals with two sequential KCl stimuli (S1 and S2) (FIG. 6j). The total SV recycling pool was reduced by approximately 70% in CGNs transfected with DynI^dmA-GFP (28±3.5% of control) and 40% with DynI^dmE-GFP (64.4±6.2% of control) (FIG. 6k). However, transfection of DynI^WT-GFP had no detectable effect (100.1±5.2% of control, FIG. 6k).

For assay [2] the test system is unchanged. The experiment in a line: FM4-64 synaptic vesicle recycling in transfected CGNs (Example 2). The following applies: single 50 mM KCl stimulus. In kind it is cell-based, rat. Here is the method:
The effect of overexpression of dynamin constructs on synaptic vesicle recycling in CGNs was monitored using the styryl dye FM4-64. Neurons were removed from the culture medium and left to repolarise for 10 min in incubation medium (170 mM NaCl, 3.5 mM KCl, 0.4 mM KH2PO4, 20 mM TES (N-tris[hydroxy-methyl]-methyl-2-aminoethane-sulphonic acid), 5 mM NaHCO3, 5 mM glucose, 1.2 mM Na2SO4, 1.2 mM MgCl2, 1.3 mM CaCl2, pH 7.4). Neurons were then loaded with FM4-64 by evoking SV recycling using KCl stimulation medium (incubation medium supplemented with 50 mM KCl and 10 μM FM4-64, 50 mM NaCl being removed to maintain osmolarity) for 2 min. Cells were washed with incubation medium and mounted on an epifluorescence microscope (Olympus IX81). After 10 min, FM4-64 was unloaded from the cells by exposure to a 30 s pulse of stimulation medium. Transfected neurons were visualised using a Olympus Plan-Apochromat x40 objective at 480 nm excitation and a band-pass emission filter of 515-555 nm. FM4-64 unloading was monitored at 555 nm excitation and a long pass emission filter of 600 nm. The decrease in fluorescence intensity of FM4-64 loaded nerve terminals on stimulation was visualised using a Hammamatsu Orca-ERG CCD digital camera (Hammamatsu City, Japan) and Metamorph 6.3 imaging software (Molecular Devices, Downingtown, Pa.). The extent of FM4-64 unloading was quantified by normalising the fluorescence value at the start of stimulation to an arbitrary value and monitoring the total decrease in fluorescence on unloading with the KCl stimulus. The kinetics of FM4-64 unloading were estimated by normalising the start and completion of unloading to 1 and 0 respectively. Other methods employed in this study are as described in Example 1.
Synaptic vesicle turnover in neurons transfected with DynI-WT-GFP was indistinguishable from that in untransfected neurons. […] The extent of synaptic vesicle turnover was quantified by unloading the terminals with a single 50 mM KCl stimulus, which is considered mild. The total synaptic vesicle recycling pool was unaffected in CGNs transfected with DynI-WT-GFP, while after transfection with DynI-2B-GFP it was reduced. The inhibition can be solely accounted for by an effect on SV endocytosis, since there was no effect on the kinetics of dye unloading. Next, the effects of DynI-PB2-GFP and DynI-3B-GFP on SVE were examined. These two mutants were chosen since they specifically fail to bind syndapin I and endophilin I, respectively, providing a clear distinction between them.
Again, there was no effect on exocytosis, indicating an inhibition of SVE.

B1: DynI^WT-GFP: Transfected GFP-tagged wild-type dynamin I (protein, UniProt Q05193 1-864, looked up)
Dynamin-1: MGNRGMEDLIPLVNRLQDAFSAIGQNADLDLPQIAVVGGQSAGKSSVLENFVGRDFLPRGSGIVTRRPLVLQLVNATTEYAEFLHCKGKKFTDFEEVRLEIEAETDRVTGTNKGISPVPINLRVYSPHVLNLTLVDLPGMTKVPVGDQPPDIEFQIRDMLMQFVTKENCLILAVSPANSDLANSDALKVAKEVDPQGQRTIGVITKLDLMDEGTDARDVLENKLLPLRRGYIGVVNRSQKDIDGKKDITAALAAERKFFLSHPSYRHLADRMGTPYLQKVLNQQLTNHIRDTLPGLRNKLQSQLLSIEKEVEEYKNFRPDDPARKTKALLQMVQQFAVDFEKRIEGSGDQIDTYELSGGARINRIFHERFPFELVKMEFDEKELRREISYAIKNIHGIRTGLFTPDMAFETIVKKQVKKIREPCLKCVDMVISELISTVRQCTKKLQQYPRLREEMERIVTTHIREREGRTKEQVMLLIDIELAYMNTNHEDFIGFANAQQRSNQMNKKKTSGNQDEILVIRKGWLTINNIGIMKGGSKEYWFVLTAENLSWYKDDEEKEKKYMLSVDNLKLRDVEKGFMSSKHIFALFNTEQRNVYKDYRQLELACETQEEVDSWKASFLRAGVYPERVGDKEKASETEENGSDSFMHSMDPQLERQVETIRNLVDSYMAIVNKTVRDLMPKTIMHLMINNTKEFIFSELLANLYSCGDQNTLMEESAEQAQRRDEMLRMYHALKEALSIIGDINTTTVSTPMPPPVDDSWLQVQSVPAGRRSPTSSPTPQRRAPAVPPARPGSRGPAPGPPPAGSALGGAPPVPSRPGASPDPFGPPPQVPSRPNRAPPGVPSRSGQASPSRPESPRPPFDL
modifications: GFP tag
notes: Transfected GFP-tagged wild-type dynamin I
As for B1, the “total SV recycling pool (FM4-64)” value in assay [1] is listed as 100.1±5.2 % of control. Moreover, in assay [2], the “total synaptic recycling pool (FM4-64)” value is 94.0±5.1 % of control.

B2: DynI-9A-GFP: GFP-tagged dynamin I R838E (site 9) mutant; abolishes amphiphysin I binding (protein, UniProt Q05193 1-864, looked up, variant R838E)
Dynamin-1: MGNRGMEDLIPLVNRLQDAFSAIGQNADLDLPQIAVVGGQSAGKSSVLENFVGRDFLPRGSGIVTRRPLVLQLVNATTEYAEFLHCKGKKFTDFEEVRLEIEAETDRVTGTNKGISPVPINLRVYSPHVLNLTLVDLPGMTKVPVGDQPPDIEFQIRDMLMQFVTKENCLILAVSPANSDLANSDALKVAKEVDPQGQRTIGVITKLDLMDEGTDARDVLENKLLPLRRGYIGVVNRSQKDIDGKKDITAALAAERKFFLSHPSYRHLADRMGTPYLQKVLNQQLTNHIRDTLPGLRNKLQSQLLSIEKEVEEYKNFRPDDPARKTKALLQMVQQFAVDFEKRIEGSGDQIDTYELSGGARINRIFHERFPFELVKMEFDEKELRREISYAIKNIHGIRTGLFTPDMAFETIVKKQVKKIREPCLKCVDMVISELISTVRQCTKKLQQYPRLREEMERIVTTHIREREGRTKEQVMLLIDIELAYMNTNHEDFIGFANAQQRSNQMNKKKTSGNQDEILVIRKGWLTINNIGIMKGGSKEYWFVLTAENLSWYKDDEEKEKKYMLSVDNLKLRDVEKGFMSSKHIFALFNTEQRNVYKDYRQLELACETQEEVDSWKASFLRAGVYPERVGDKEKASETEENGSDSFMHSMDPQLERQVETIRNLVDSYMAIVNKTVRDLMPKTIMHLMINNTKEFIFSELLANLYSCGDQNTLMEESAEQAQRRDEMLRMYHALKEALSIIGDINTTTVSTPMPPPVDDSWLQVQSVPAGRRSPTSSPTPQRRAPAVPPARPGSRGPAPGPPPAGSALGGAPPVPSRPGASPDPFGPPPQVPSRPNEAPPGVPSRSGQASPSRPESPRPPFDL
modifications: GFP tag
B2: in assay [2], the “total synaptic recycling pool (FM4-64)” value was 71.9±2.7 % of control.

B3: DynI-3B-GFP: GFP-tagged dynamin I point mutant P793A (site 3); fails to bind endophilin I (protein)
chain: MGNRGMEDLIPLVNRLQDAFSAIGQNADLDLPQIAVVGGQSAGKSSVLENFVGRDFLPRGSGIVTRRPLVLQLVNSTTEYAEFLHCKGKKFTDFEEVRLEIEAETDRVTGTNKGISPVPINLRVYSPHVLNLTLVDLPGMTKVPVGDQPPDIEFQIRDMLMQFVTKENCLILAVSPANSDLANSDALKIAKEVDPQGQRTIGVITKLDLMDEGTDARDVLENKLLPLRRGYIGVVNRSQKDIDGKKDITAALAAERKFFLSHPSYRHLADRMGTPYLQKVLNQQLTNHIRDTLPGLRNKLQSQLLSIEKEVDEYKNFRPDDPARKTKALLQMVQQFAVDFEKRIEGSGDQIDTYELSGGARINRIFHERFPFELVKMEFDEKELRREISYAIKNIHGIRTGLFTPDLAFEATVKKQVQKLKEPSIKCVDMVVSELTSTIRKCSEKLQQYPRLREEMERIVTTHIREREGRTKEQVMLLIDIELAYMNTNHEDFIGFANAQQRSNQMNKKKTSGNQDEILVIRKGWLTINNIGIMKGGSKEYWFVLTAENLSWYKDDEEKEKKYMLSVDNLKLRDVEKGFMSSKHIFALFNTEQRNVYKDYRQLELACETQEEVDSWKASFLRAGVYPERVGDKEKASETEENGSDSFMHSMDPQLERQVETIRNLVDSYMAIVNKTVRDLMPKTIMHLMINNTKEFIFSELLANLYSCGDQNTLMEESAEQAQRRDEMLRMYHALKEALSIIGDINTTTVSTPMPPPVDDSWLQVQSVPAGRRSPTSSPTPQRRAPAVPPARAGSRGPAPGPPPAGSALGGAPPVPSRPGASPDPFGPPPQVPSRPNRAPPGVPSRSGQASPSRPESPRPPFDL
modifications: left off: large carriers
Regarding B3, the “total synaptic recycling pool (FM4-64)” value in assay [2] is listed as 56.8±4.4 % of control.
